Measured values from publication PMC13438699 (Nature Communications, 2026).

B1: HB31 wild type (WT) Fab (Fab, V domains shown)
VH: EVQLLESGGGLVQPGGSLRLSCTVSGFTSSNYDMSWVRQAPGKGLEWVSGISGTGRDTYYADSVKGRFTISRDNSKNTLSLQMNSLRADDTAVYFCARDRPVLRYFDWQPYGLDVWGKGTTVTVSS
VL: QSALTQPPSASGSPGQSVTISCTGTSSDVGGYNYVSWYQQYPSKAPKLMIYEVSKRPSGVPDRFSGSKSGNTASLTVSGLQAEDEADYYCNSYAGSNLYVFGTGTKVTVL
notes: also called HB31 WT Fab; HB31 Fab; source: Expi293F, transiently co-transfected, purified (CaptureSelect CH1-XL)
B2: HB31 (IgG format) (antibody, V domains shown)
VH: B1 VH
VL: B1 VL
notes: also called HB31 wild type; WT
B3: HB34 Fab (Fab, V domains shown)
VH: B1 VH
VL: QSALTQPASVSGSPGQSITISCTGTSSDVGSYNLVSWYQQHPGKAPKLMIYEGSQRPSGVSNRFSGSKSGNTASLTISGLQAEDEADYYCCSYASSTSYVFGTGTKVTVL
B4: HB31 wild type (WT) IgG (antibody, V domains shown)
VH: B1 VH
VL: B1 VL
notes: copies: 2 + 2
B5: HB34 (IgG format) (antibody, V domains shown)
VH: B1 VH
VL: B3 VL
B6: HB31 Fab (Fab, V domains shown)
VH: B1 VH
VL: B1 VL
B7: HB315 (IgG format) (antibody, V domains shown)
VH: EVQLLESGGGLAQPGGSLRLSCTASGFTFSNFAMNWVRQAPGKGLEWVSFINSGSGSTYYADSVKGRFTISRDNSENTLFLQMNSLRAEDTAVYYCAKDLGRAIFGLVIPEGAFDIWGQGTMVTVSS
VL: EIVMTQSPSSLSASVGDRVTITCRASQSINNHLNWYQQKPGKAPKLLIYAASSLQSGVPSRFSGSGSGTDFTLTISSLQPADFATYHCQQSYGVPLTFGQGTKVEIK
B8: HB315 Fab (Fab, V domains shown)
VH: B7 VH
VL: B7 VL
B9: 047-09 4F04 Fab (Fab, V domains shown)
VH: EVQLVESGGGLVQPGGSLRLSCAASGFTFNTYNMNWVRQAPGKGLEWVSYISSSSLSRYYADSVKGRFTISRDNAKNSLFLQMNSLRAEDTAVYYCARGAQAGYSSFFPPTTFWGQGTLVTVSS
VL: EIVMTQSPATLSVSPGEGVTLSCRASQSVSSNLAWYQQKPGQAPRLLIYGASTRATGIPARFSGSGSGTEFTLTISSLQSEDFAVYYCQQYYNWPPLTFGGGTKVEIK
B10: CR9114 Fab (Fab, V domains shown)
VH: QVQLVQSGAEVKKPGSSVKVSCKSSGGTSNNYAISWVRQAPGQGLDWMGGISPIFGSTAYAQKFQGRVTISADIFSNTAYMELNSLTSEDTAVYFCARHGNYYYYSGMDVWGQGTTVTVSS
VL: QSALTQPPAVSGTPGQRVTISCSGSDSNIGRRSVNWYQQFPGTAPKLLIYSNDQRPSVVPDRFSGSKSGTSASLAISGLQSEDEAEYYCAAWDDSLKGAVFGGGTQLTVL
notes: source: Expi293F, transient co-transfection, purified (CaptureSelect CH1-XL)

Tests used:
[1] = target: A/Texas/37/2024 (H5N1) HA (Influenza A virus A/Texas/37/2024 (H5N1), strain); experiment: BLI; conditions: both partners purified
[2] = target: T1, A/Solomon Islands/3/2006 (H1N1) HA (influenza A virus A/Solomon …); experiment: ELISA; conditions: one partner purified
A/USSR/90/1977 (H1N1) HA = target: T2, A/USSR/90/1977 (H1N1) HA (Influenza A virus A/USSR/90/1977 (H1N1), UniProt P03453, strain); experiment: ELISA; conditions: one partner purified
T2 construct: source: bought: Sino Biological

[3] = target: T3, A/California/07/2009 (H1N1) HA (Influenza A virus A/California/07/2009 …, UniProt C3W5X2, strain); experiment: ELISA; conditions: one partner purified
T3 construct: source: bought: BEI Resources (NR-42635)

[4] = target: T4, A/Taiwan/01/1986 (H1N1) HA (Influenza A virus A/Taiwan/1/1986 (H1N1), UniProt F5CU03, strain); experiment: ELISA; conditions: one partner purified
T4 construct: source: bought: Sino Biological

[5] = target: T5, A/Michigan/45/2015 (H1N1) HA (Influenza A virus A/Michigan/45/2015 …, UniProt A0A1J0CXU0, strain); experiment: BLI; conditions: both partners purified
[6] = target: T1, A/Solomon Islands/3/2006 (H1N1) HA; experiment: cryo-EM structure; conditions: both partners purified
[7] = target: T5, A/Michigan/45/2015 (H1N1) HA; experiment: ELISA; conditions: one partner purified
[8] = target: A/Beijing/262/1995 (H1N1) HA (Influenza A virus A/Beijing/262/1995 …, UniProt B4UPF7, strain); experiment: ELISA; conditions: one partner purified
[9] = target: T6, A/Japan/305/1957 (H2N2) HA (Influenza A virus A/Japan/305/1957 …, UniProt Q0A2X3, strain); experiment: ELISA; conditions: one partner purified
T6 construct: source: Sf9, baculovirus, purified from supernatant (Ni Sepharose Excel, SEC)

Row | Binder | binding result [2] | binding result (A/USSR/90/1977 (H1N1) HA) | binding result [3] | binding result [4] | binding result [5] | binding result [6] | further results
1 | B1 |  |  |  |  |  |  | Kd [1]: 4.5 nM
2 | B2 | binds | binds | binds | binds |  |  | 
3 | B3 |  |  |  |  | binds | binds | 
4 | B4 |  |  |  |  |  |  | Kd [1]: 1.6 nM
5 | B5 | binds | binds | binds | binds |  |  | binding result [7]: binds; binding result [8]: binds
6 | B6 |  |  |  |  | binds | binds | 
7 | B7 | binds | binds | binds | binds |  |  | fold stronger binding activity than HB31 and HB34 (ELISA) [9]: ≥ 4 fold; binding result [7]: binds; binding result [8]: binds
8 | B8 |  |  |  |  | binds | binds | 
9 | B9 |  |  |  |  | binds |  | 
10 | B10 |  |  |  |  | binds |  | 
